Data from patent publication US20210395344A1.

Legend:
[1] = target: SARS-CoV-2 Spike Glycoprotein S1 (subunit 1) (SARS-CoV-2) (UniProt P0DTC2); experiment: epitope binning; competitor 2-2
[2] = target: SARS-CoV-2 Spike Glycoprotein S1 (subunit 1) (SARS-CoV-2) (UniProt P0DTC2); experiment: epitope binning; competitor 2-5
[3] = target: SARS-CoV-2 Spike Glycoprotein S1 (subunit 1) (SARS-CoV-2) (UniProt P0DTC2); experiment: epitope binning; competitor 2-6
[4] = target: SARS-CoV-2 Spike Glycoprotein S1 (subunit 1) (SARS-CoV-2) (UniProt P0DTC2); experiment: epitope binning; competitor 2-8
[5] = target: SARS-CoV-2 Spike Glycoprotein S1 (subunit 1) (SARS-CoV-2) (UniProt P0DTC2); experiment: epitope binning; competitor 1-16
[6] = target: SARS-CoV-2 Spike Glycoprotein S1 (subunit 1) (SARS-CoV-2) (UniProt P0DTC2); experiment: epitope binning; competitor 1-32
[7] = target: SARS-CoV-2 Spike Glycoprotein S1 (subunit 1) (SARS-CoV-2) (UniProt P0DTC2); experiment: epitope binning; competitor 1-35
[8] = target: SARS-CoV-2 Spike Glycoprotein S1 (subunit 1) (SARS-CoV-2) (UniProt P0DTC2); experiment: epitope binning; competitor 2-11
[9] = target: SARS-CoV-2 Spike Glycoprotein S1 (subunit 1) (SARS-CoV-2) (UniProt P0DTC2); experiment: epitope binning; competitor Acro mAb
[10] = target: SARS-CoV-2 Spike Glycoprotein S1 (subunit 1) (SARS-CoV-2) (UniProt P0DTC2); experiment: epitope binning; competitor Abcam CR3022

Substance: Abcam CR3022 (antibody)
- epitope binning score [1]: 0
- epitope binning score [2]: 0
- epitope binning score [3]: 2
- epitope binning score [4]: 0
- epitope binning score [5]: 2
- epitope binning score [6]: 1
- epitope binning score [7]: 2
- epitope binning score [8]: 1
- epitope binning score [9]: 2
- epitope binning score [10]: 0
